Reference: patent publication US12692302B2, “Uses of IL-13 antagonists for treating atopic dermatitis” (Genentech, Inc., priority 2016, dated 2026)
Where two headings read alike, the source gives them in different places.

Assays:
[1] = Clinical Study I: serum lebrikizumab pharmacokinetics; type: in vivo, human; details: AD patients; for Mean Cmax, wk1 / Mean Cmin wk12 / Mean Cmin, wk4 / Mean Cmin, wk8: serum
Protocol: Pharmacokinetic parameters were also assessed as follows. Serum samples for analysis of lebrikizumab pharmacokinetics were obtained at Day 1 (pre-dose) and at Weeks 1, 4 (pre-dose), 6, 8 (pre-dose), 12, 16, and 20 for all dosing regimens. Serum lebrikizumab concentrations were summarized by treatment and visit using descriptive statistics for the patients that received one of the lebrikizumab treatment regimens.

[2] = tested on: moderate-to-severe asthmatic patients not controlled on inhaled corticosteroids; details: all doses (37.5, 125, 250 mg Q4W), cited from earlier work
[3] = tested on: patients with persistent moderate to severe atopic dermatitis inadequately controlled by TCS; assay: Clinical Study I: safety, Weeks 0 to 20; type: in vivo, human
Text: Safety Follow-Up Period. All patients who completed study treatment during the placebo-controlled treatment period (Weeks 1-12) were followed for safety for an additional 8 weeks (Weeks 13-20). During this safety follow-up period, patients were no longer required to apply the topical treatment regimen as specified during the run-in and treatment periods. Instead, triamcinolone acetonide 0.1% cream and/or hydrocortisone 2.5% cream could be applied as determined by the patient and the study investigator. At each study visit the patient was required to bring their TCS containers to the study site to be weighed. Patients were encouraged to continue applying emollients at least once daily to xerotic skin. An escalation in therapy for AD was allowed at any during the study, if, in the opinion of the investigator, it was clinically indicated.
Safety Outcome Measures. The safety outcome measures for this study were as follows: (i) frequency and severity of treatment-emergent adverse events; (ii) incidence of human anti-therapeutic antibodies (ATA) at baseline and during the study; (iii) frequency and severity of skin and other organ system infections throughout the study; the clinical definition of skin infection was as follows: the diagnosis of infection was based on the Investigator's clinical assessment including but not limited to the presence of honey-colored crusting, serous discharge, pustules, or pain at the site of rash and that may be associated with systemic features, including fever or a flare in AD disease (defined above); and (iv) incidence of disease rebound following discontinuation of study drug as assessed by the investigator; the clinical definition of disease rebound was: a significant worsening of disease severity after cessation of therapy to a severity level that is greater than prior to commencing therapy (Hijnen et al., J Eur Acad Dermatol Venereol 2007; 21(1) 85-9).

[4] = tested on: atopic dermatitis patients; assay: Atopic dermatitis longitudinal PK-PD model of lebrikizumab (EASI score) and simulated dosing regimens; parameters: species or system human; details: PK-PD model fitted to EASI scores up to 12 weeks from Clinical Study I
Text: In FIG. 5, R(t) is the EASI score; Kin0 is the baseline disease progression rate constant; kin is the disease progression rate constant with lebrikizumab and including the placebo/TCS effect; Edrug is the lebrikizumab drug effect on disease progression inhibition; Econ is the placebo/TCS effect (constant overtime); Emax is the maximum lebrikizumab drug effect on disease progression inhibition; EC50 is the lebrikizumab concentration that leads to 50% of Emax; kout is the tissue repair rate constant; R(t=0) is the baseline EASI score; IIV is the inter-individual variability; ωkout is the inter-individual variability for kout; ωEcon is the inter-individual variability for Econ; ρKoutXEcon is the correlation between kout and Econ; and σ is the residual error.
The model was used to simulate the predicted efficacy, e.g., EASI-75 score, of various alternative dosing regimens, for example, including but not limited to, various loading doses followed subsequently by various maintenance doses, e.g., flat doses of lebrikizumab administered at regular time intervals, or various lower flat doses or higher flat doses, or increased treatment intervals with lebrikizumab.
The model development began with raw pharmacokinetic and efficacy data that had been collected during the conduct of the Phase II Clinical Study I described above. […]

[5] = 125 mg Q4W + TCS (n = 50), Weeks 0 to 20
[6] = 125 mg SD + TCS (n = 54), Weeks 0 to 20
[7] = 250 mg SD + TCS (n = 52), Weeks 0 to 20
[8] = all lebrikizumab groups (n = 156), Weeks 0 to 20
[9] = lebrikizumab-treated patients, all doses

Question: Which “t½ (elimination half-life)” value ([1]; 125 mg Q4W subcutaneous) does the source give for “lebrikizumab: monoclonal humanized anti-IL-13 IgG4 antibody; heavy chain SEQ ID NO: 11, light chain SEQ ID NO: 12; formulated at 125 mg/mL in prefilled syringe” here?
Answer: 20.9 days

Question: What about the “t½ (elimination half-life)” value ([1]; 125 mg SD subcutaneous) of the same substance?
Answer: 18.5 days

Question: And the “t½ (elimination half-life)” value ([1]; 250 mg SD subcutaneous)?
Answer: 22.2 days

Question: What about the half-life ([1]; across the dosing regimens) of the same substance?
Answer: 19 to 22 days

Question: What about the “Mean Cmax, wk1” value ([1]; 125 mg Q4W subcutaneous) of the same substance?
Answer: 16100 ng/mL

Question: What about the “Mean Cmin wk12” value ([1]; 125 mg Q4W subcutaneous) of the same substance?
Answer: 14400 ng/mL

Question: And the “Mean Cmin, wk4” value ([1]; 125 mg Q4W subcutaneous)?
Answer: 9150 ng/mL

Question: And the “Mean Cmin, wk8” value ([1]; 125 mg Q4W subcutaneous)?
Answer: 13600 ng/mL

Question: What about the “Mean Cmax, wk1” value ([1]; 125 mg SD subcutaneous) of the same substance?
Answer: 17000 ng/mL

Question: What about the “Mean Cmin wk12” value ([1]; 125 mg SD subcutaneous) of the same substance?
Answer: 2280 ng/mL

Question: What about the “Mean Cmin, wk4” value ([1]; 125 mg SD subcutaneous) of the same substance?
Answer: 10200 ng/mL

Question: What about the “Mean Cmin, wk8” value ([1]; 125 mg SD subcutaneous) of the same substance?
Answer: 4590 ng/mL

Question: What about the “Mean Cmax, wk1” value ([1]; 250 mg SD subcutaneous) of the same substance?
Answer: 35600 ng/mL

Question: What about the “Mean Cmin wk12” value ([1]; 250 mg SD subcutaneous) of the same substance?
Answer: 3770 ng/mL

Question: And the “Mean Cmin, wk4” value ([1]; 250 mg SD subcutaneous)?
Answer: 21400 ng/mL

Question: And the “Mean Cmin, wk8” value ([1]; 250 mg SD subcutaneous)?
Answer: 9530 ng/mL

Question: What about the “reduction in the rate of asthma exacerbations” value ([2]; biomarker-high (serum periostin-high) patients) of the same substance?
Answer: 60%

Question: And the “reduction in the rate of asthma exacerbations” value ([2]; biomarker-low (serum periostin-low) patients)?
Answer: 5%

Question: What about the “AE leading to withdrawal from study drug, %” value [3, 5] of the same substance?
Answer: (4) %

Question: And the “Conjunctivitis allergic, %” value [3, 5]?
Answer: (4.0) %

Question: And the “Injection site reactions, %” value [3, 5]?
Answer: (4) %

Question: And the “Patients with at least one AE, %” value [3, 5]?
Answer: (54) %

Question: And the “Patients with at least one serious AE, %” value [3, 5]?
Answer: (4) %

Question: And the “SAE leading to withdrawal from study drug (Myopathy), %” value [3, 5]?
Answer: (2) %

Question: What about the “AE leading to withdrawal from study drug, %” value [3, 6] of the same substance?
Answer: (2) %

Question: What about the “Conjunctivitis allergic, %” value [3, 6] of the same substance?
Answer: (7.4) %

Question: And the “Patients with at least one AE, %” value [3, 6]?
Answer: (70) %

Question: What about the “Patients with at least one serious AE, %” value [3, 6] of the same substance?
Answer: (6) %

Question: What about the “AE leading to dose modification/interruption, %” value [3, 7] of the same substance?
Answer: (2) %

Question: And the “Conjunctival hyperaemia, %” value [3, 7]?
Answer: (1.9) %

Question: What about the “Conjunctivitis allergic, %” value [3, 7] of the same substance?
Answer: (3.8) %

Question: And the “Patients with at least one AE, %” value [3, 7]?
Answer: (75) %

Question: And the “Conjunctival hyperaemia, %” value [3, 8]?
Answer: (0.6) %

Question: And the “Conjunctivitis allergic, %” value [3, 8]?
Answer: (5.1) %

Question: What about the “Patients with at least one serious AE, %” value [3, 8] of the same substance?
Answer: (3) %

Question: And the “SAE leading to withdrawal from study drug (Myopathy), %” value [3, 8]?
Answer: (1) %

Question: And the “Conjunctival infections, irritations and inflammations: patients with at least one AE, %” value ([3]; human, in vivo)?
Answer: (5.8) %

Question: What about the “Conjunctival infections, irritations and inflammations: total number of events” value ([3]; human, in vivo) of the same substance?
Answer: 10

Question: And the “Herpes infections: total number of infections related to study drug (investigator-assessed)” value ([3]; human, in vivo)?
Answer: 0

Question: What about the “Infections, %” value ([3]; human, in vivo) of the same substance?
Answer: (36) %

Question: What about the “maximum eosinophil count in the five patients with eosinophil-associated AEs” value ([3]; human, in vivo) of the same substance?
Answer: 0.91-3.2 ×10^9/L

Question: What about the “Eosinophil-associated AEs, % of patients” value [3, 9] of the same substance?
Answer: 3.2%

Question: And the “Eosinophil-associated AEs, number of patients” value [3, 9]?
Answer: five

Question: And the “patients with a conjunctivitis AE, %” value ([3]; pooled lebrikizumab group)?
Answer: 9.6%

Question: What about the “deaths, events of anaphylaxis, malignancy, or protocol-defined parasitic or targeted intracellular infections of interest” value ([3]; whole study) of the same substance?
Answer: no deaths

Question: And the “EC50 (lebrikizumab concentration that leads to 50% of Emax), estimate” value [4]?
Answer: 8.08 µg/mL

Question: And the “Emax (maximum lebrikizumab drug effect on disease progression inhibition), estimate” value [4]?
Answer: 0.729
